Experimental findings from paper PMC8041772, “Activation mechanism of a small prototypic Rec-GGDEF diguanylate cyclase” (Nature Communications, 2021) are described below.

For one assay, the target named is T1, DgcR (Leptospira biflexa, UniProt B0SUI1).
T1 construct: gene LEPBI_p0053; full-length (298 residues), dimer
T1 sequence (B0SUI1 1-298): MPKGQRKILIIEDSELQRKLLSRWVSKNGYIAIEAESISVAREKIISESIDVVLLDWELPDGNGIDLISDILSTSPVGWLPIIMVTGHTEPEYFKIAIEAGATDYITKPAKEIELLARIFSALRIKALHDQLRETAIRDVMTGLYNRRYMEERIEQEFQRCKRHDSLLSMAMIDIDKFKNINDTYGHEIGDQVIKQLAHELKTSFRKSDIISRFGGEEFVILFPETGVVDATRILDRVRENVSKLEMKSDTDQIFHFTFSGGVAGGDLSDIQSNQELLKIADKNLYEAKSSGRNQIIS
The experiment in a line: crystal structure at […] Å (DgcR_inh); product-inhibition Ki from progress curves (oIEC), about […] for BeF3-activated and about […] for native enzyme. In kind it is biochemical.

For assay [1], the target named is DgcR (LEPBI_RS18680, diguanylate cyclase controlled by Rec) from Leptospira biflexa, wild type, native (Leptospira biflexa). The experiment in a line: SEC-MALS; in-line multi-angle light scattering and refractive index; 100 µL loaded at 0.5 to 10 mg/mL with various ligands; 20 mM Tris pH 8.0, 500 mM NaCl (or 20 mM NaCl), 5 mM MgCl2, 1 mM DTT; substrate analogue, product or lower salt did not change the quaternary state. For orientation: SEC sorts molecules by how far they enter the pores of the column.

The target in assay [2] is DgcR wild type, BeF3- modified (pseudo-phosphorylated, activated) (Leptospira biflexa). The assay is described as above.

pKi: −log10 of the molar value.

For `Nc1nc2c(ncn2[C@@H]2O[C@@H]3CO[P@](=O)(O)O[C@H]4[C@@H](O)[C@H](n5cnc6c(=O)[nH]c(N)nc65)O[C@@H]4CO[P@](=O)(O)O[C@H]3[C@H]2O)c(=O)[nH]1` [c-di-GMP], the pKi at DgcR is approximately 6.82.
In the case of “DgcR (LEPBI_RS18680, diguanylate cyclase controlled by Rec) from Leptospira biflexa, wild type, native (enzyme)”, the stoichiometry N in assay [1] was determined as 2.
Turning to “DgcR wild type, BeF3- modified (pseudo-phosphorylated, activated) (enzyme)”, in assay [2], the stoichiometry N amounted to 2.

Usually pKi stands for −log10 of the Ki, conventionally taken in molar units. By stoichiometry N is commonly meant the number of molecules, sites or subunits per partner or assembly.
